B1: monoclonal antibody 7.1.3 (antibody, V domains shown)
VH: QVQLVQSGAEVKKPGASVKVSCKASGYTFTNYDINWVRQAPGQGLEWMGISAYTGNTNYAQKLQGRVTMTTDTSTSTAYMELRSLRSDDTAVYYCVRDYHDSNGYYYFDYWGQGTLVTVS
VL: DIQMIQSPLSLPVIPGEPASMSCRSSRSLLHSNGNNYLEWYLQKPGQSPQLLIYLGSNRASGVPDRFSGSGSGTDFTLKISRVEAEDVGIYYCMQGLQLPWTFGGTKVIKR
B2: TR4-Fc fusion protein (Fc fusion)
chain: ATIKLHDQSIGTQQWEHSPLGELCPPGSHRSERPGACNRCTEGVGYTNASNNLFACLPCTACKSDEEERSPCTTTRNTACQCKPGTFRNDNSAEMCRKCSTGCPRGMVKVKDCTPWSDIECVHKESGNGHNI
notes: not shown: Fc region

Experiments:
TR4-Fc fusion protein [1] = biological target: B2; assay: competition ELISA, inhibition of biotinylated TRAIL binding to captured TR4-Fc; assay 1
Protocol: (§1) Goat anti-human Fc was diluted to 0.1 micrograms/ml in coating buffer. The Immulon 4 microplate was coated with 100 microliters per well of the Goat anti-human Fc solution and incubated overnight at 4° C. The coating solution was decanted from the plate, and blocking solution was dispensed at 200 microliters per well. The plate was incubated at room temperature for 1 hour. After the 1 hour incubation period, the blocking solution was decanted from the plate and 1 microgram/mL of TR4-Fc was dispensed at 100 microliters/well and incubated for 2 hours at room temperature. After the incubation, the plate was washed five times manually using a Wheaton manifold.
(§2) Hybridoma supernatants were (previously) prepared in a low binding dilution plate using diluent. The supernatants were prepared in duplicate and were diluted from the stock concentration with 2.5 fold dilutions for the 7 subsequent wells. If a purified form of the antibody was available, the starting concentration was 5 micrograms/mL. The positive control (TR4-Fc) was diluted from 5 micrograms/mL. 100 microliters was transferred into the ELISA plate and pre-incubated for 30 minutes at room temperature. […]
(§3) After the one-hour incubation, the plate was decanted and washed with PBST five times and blotted. […] The plate was immediately read at 450 nm using the spectrometer from Molecular Devices.

TR4-Fc fusion protein [2] = biological target: B2; assay: competition ELISA, inhibition of biotinylated TRAIL binding to captured TR4-Fc; assay 2
Protocol: as §1, §2, §3

Biotinylated TRAIL [3] = biological target: T1, Biotinylated TRAIL (Homo sapiens (Human), UniProt P50591 114-281, limits assumed, biotinylated (sites not given)); assay: competition ELISA, soluble TR4 (TR4-Fc positive control) competing with captured TR4-Fc for biotinylated TRAIL; assay 1
T1 sequence (P50591 114-281 limits assumed): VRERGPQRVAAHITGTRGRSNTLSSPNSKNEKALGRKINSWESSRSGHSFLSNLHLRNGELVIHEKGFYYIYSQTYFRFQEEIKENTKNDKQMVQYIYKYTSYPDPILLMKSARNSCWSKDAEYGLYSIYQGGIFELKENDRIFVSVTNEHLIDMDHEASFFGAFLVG
Protocol: as §1, §2, §3

Biotinylated TRAIL [4] = biological target: T1, Biotinylated TRAIL; assay: competition ELISA, soluble TR4 (TR4-Fc positive control) competing with captured TR4-Fc for biotinylated TRAIL; assay 2
Protocol: as §1, §2, §3

IC50 (TR4-Fc fusion protein [1]) | IC50 (TR4-Fc fusion protein [2]) | IC50 (Biotinylated TRAIL [3]) | IC50 (Biotinylated TRAIL [4]) | Binder
0.152 µg/mL | 0.068 µg/mL |  |  | B1
 |  | 0.491 µg/mL | 0.284 µg/mL | B2

Reference: patent US20070292411A1 (Human Genome Sciences, published 2007)
